# Laboratory results reported in patent US20250129150A1 (APOGEE THERAPEUTICS, published 2025).
# Several values for one entry are separate records, joined by “and”; a condition that tells them apart may be missing. Equal values may be shown once.
# Experiments:
# [1] = molecular target: T1, hIL-13 (human, UniProt P35225 35-146, limits assumed); assay: ELISA
# T1 construct: IL-13 as used in the cell assays, the ELISA, the binning study and HDX-MS/XL-MS; also called human IL-13; Hu IL-13
# [2] = molecular target: T1, hIL-13; assay: cell-based or functional assay
# [3] = molecular target: T1, hIL-13; assay: cell-based or functional assay; remark: listed apart in the source
# [4] = molecular target: T1, hIL-13; assay: cell-based or functional assay; remark: listed apart in the source
# [5] = molecular target: T2, Recombinant Human IL-13 Protein, His Tag (Acro Cat. IL3-H52H4) (human, UniProt P35225 35-146); assay: SPR (Biacore 8K), mAb captured on Protein G chip, IL-13 as analyte
# T2 construct: Bought protein; also called Hu IL-13; not shown: His Tag
# T2 sequence (P35225 other isoform, or with tags, fused parts or gaps limits assumed): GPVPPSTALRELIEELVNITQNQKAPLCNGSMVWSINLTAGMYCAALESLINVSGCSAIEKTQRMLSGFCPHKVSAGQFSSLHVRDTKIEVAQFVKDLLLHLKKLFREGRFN
# Protocol: (§1) Samples were injected in a multi-cycle manner over freshly captured mAb, by regenerating the capture surfaces with injection of glycine pH 1.5 for 30 sec at a flow rate of 30 μL/min. The data was processed and analyzed with Biacore Insight Evaluation Software Version 2.0.15.12933 (GE Healthcare) as follows. […] The responses from the two buffer blank injections were then subtracted from the reference subtracted data (2-1) to yield double-referenced data, which were fit to an 1:1 binding model to determine the apparent association (ka) and dissociation rate constants (kd). Their ratio provided the apparent equilibrium dissociation constant or affinity constant (KD=kd/ka).
# [6] = molecular target: T3, Recombinant Cynomolgus IL-13 Protein, His Tag (SINO BIOLOGICAL, Cat. 11057-C07H) (cynomolgus monkey, UniProt Q5I6E4 19-132 (Macaca thibetana entry)); assay: as above
# T3 construct: also called Cyno IL-13; cynomolgus monkey IL-13
# T3 chain: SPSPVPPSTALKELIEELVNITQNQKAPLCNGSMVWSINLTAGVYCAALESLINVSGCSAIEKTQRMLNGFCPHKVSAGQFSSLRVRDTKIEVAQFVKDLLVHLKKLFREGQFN
# Protocol: as §1
# [7] = molecular target: biotinylated hIL-13 (human, UniProt P35225 35-146, limits assumed, biotinylated (site not stated)); assay: FACS; blockade of biotinylated hIL-13 (0.05 ug/mL) binding to HEK293 cells expressing hIL-13Rα1/hIL-4Rα
# Chain of biotinylated hIL-13 (P35225 other isoform, or with tags, fused parts or gaps limits assumed): as the sequence (P35225 other isoform, or with tags, fused parts or gaps limits assumed) above
# Protocol: Briefly, HEK293 previously transduced to stably express both hIL-13Rα and hIL-4Rα were cultured and harvested. Cells were seeded at 200,000 cells in 100 uL per well. Cells were washed and the supernatant was discarded. […] The cells were stained in this mixture at 4° C. for 1 hour. […] Cells were incubated at 4° C. for 1 hour, protected from light. Cells were then washed and the median fluorescence intensity (MFI) of cells in each well were recorded by FACS using a BD FACSCanto II. Subsequent data were analyzed using GraphPad Prism.
# [8] = molecular target: T1, hIL-13; assay: cell-based or functional assay; remark: listed apart in the source
# T1 sequence (P35225 other isoform, or with tags, fused parts or gaps limits assumed): as the sequence (P35225 other isoform, or with tags, fused parts or gaps limits assumed) above
Binder,Kd [1],pSTAT6 Inhibition IC50 (HT-29 cells) [2],TARC Inhibition IC50 (A549 cells) [3],TF-1 Proliferation Inhibition IC50 [4],Kd [5],Kd [6],IC50 [7],TARC Release IC50 (A549 cells) [8]
"Construct 142 (antibody, human IgG4, kappa, also called HC1; LC6_m8) heavy: EVQLQESGPGLVKPSETLSLTCTVSGFSLNAYSVNWIRQPPGKGLEWLGMIWGDGKIVYNSALKSRLTISKDSSKNQVSLKLSSVTAADTAVYYCAGDGYYPYAMDNWGQGTTVTVSSASTKGPSVFPLAPCSRSTSESTAALGCLVKDYFPEPVTVSWNSGALTSGVHTFPAVLQSSGLYSLSSVVTVPSSSLGTKTYTCNVDHKPSNTKVDKRVESKYGPPCPSCPAPEFLGGPSVFLFPPKPKDTLYITREPEVTCVVVDVSQEDPEVQFNWYVDGVEVHNAKTKPREEQFNSTYRVVSVLTVLHQDWLNGKEYKCKVSNKGLPSSIEKTISKAKGQPREPQVYTLPPSQEEMTKNQVSLTCLVKGFYPSDIAVEWESNGQPENNYKTTPPVLDSDGSFFLYSRLTVDKSRWQEGNVFSCSVMHEALHNHYTQKSLSLSLGK light: DIQLTQSPSSLSASVGDRVTITCRASKSVDSYGNSFMHWYQQKPGKAPKLLIYLASELESGVPSRFSGSGSGTDFTLTISSLQPEDFATYYCQQNNEDPRTFGGGTKVEIKRTVAAPSVFIFPPSDEQLKSGTASVVCLLNNFYPREAKVQWKVDNALQSGNSQESVTEQDSKDSTYSLSSTLTLSKADYEKHKVYACEVTHQGLSSPVTKSFNRGEC",0.054 nM,0.29 nM,0.92 nM,0.2 nM,0.108 nM,0.326 nM,0.77 nM,–
"Construct 15 (antibody, human IgG1, kappa) heavy: EVQLQESGPGLVKPSETLSLTCTVSGFSLNAYSVNWIRQPPGKGLEWLGMIWGDGKIVYNSALKSRLTISKDSSKNQVSLKLSSVTAADTAVYYCAGDGYYPYAMDNWGQGTTVTVSSASTKGPSVFPLAPSSKSTSGGTAALGCLVKDYFPEPVTVSWNSGALTSGVHTFPAVLQSSGLYSLSSVVTVPSSSLGTQTYICNVNHKPSNTKVDKKVEPKSCDKTHTCPPCPAPELAGAPSVFLFPPKPKDTLYITREPEVTCVVVDVSHEDPEVKFNWYVDGVEVHNAKTKPREEQYNSTYRVVSVLTVLHQDWLNGKEYKCKVSNKALPAPIEKTISKAKGQPREPQVYTLPPSRDELTKNQVSLTCLVKGFYPSDIAVEWESNGQPENNYKTTPPVLDSDGSFFLYSKLTVDKSRWQQGNVFSCSVMHEALHNHYTQKSLSLSPG light: DIQLTQSPSSLSASVGDRVTITCRASKSVDSYGNSFMHWYQQKPGKAPKLLIYLASNLESGVPSRFSGSGSGTDFTLTISSLQPEDFATYYCQQNNEDPRTFGGGTKVEIKRTVAAPSVFIFPPSDEQLKSGTASVVCLLNNFYPREAKVQWKVDNALQSGNSQESVTEQDSKDSTYSLSSTLTLSKADYEKHKVYACEVTHQGLSSPVTKSFNRGEC",–,–,–,–,–,–,–,0.9 nM
"Construct 19 (antibody, human IgG1, kappa) heavy: EVQLLESGGGLVQPGGSLRLSCAASGFSLNAYSVNWVRQAPGKGLEWLGMIWGDGKIVYNSALKSRLTISKDSSKNTVYLQMNSLRAEDTAVYYCAGDGYYPYAMDNWGQGTTVTVSSASTKGPSVFPLAPSSKSTSGGTAALGCLVKDYFPEPVTVSWNSGALTSGVHTFPAVLQSSGLYSLSSVVTVPSSSLGTQTYICNVNHKPSNTKVDKKVEPKSCDKTHTCPPCPAPELAGAPSVFLFPPKPKDTLYITREPEVTCVVVDVSHEDPEVKFNWYVDGVEVHNAKTKPREEQYNSTYRVVSVLTVLHQDWLNGKEYKCKVSNKALPAPIEKTISKAKGQPREPQVYTLPPSRDELTKNQVSLTCLVKGFYPSDIAVEWESNGQPENNYKTTPPVLDSDGSFFLYSKLTVDKSRWQQGNVFSCSVMHEALHNHYTQKSLSLSPG light: DIQLTQSPSSLSASVGDRVTITCRASKSVDSYGNSFMHWYQQKPGKAPKLLIYLASNLESGVPSRFSGSGSGTDFTLTISSLQPEDFATYYCQQNNEDPRTFGGGTKVEIKRTVAAPSVFIFPPSDEQLKSGTASVVCLLNNFYPREAKVQWKVDNALQSGNSQESVTEQDSKDSTYSLSSTLTLSKADYEKHKVYACEVTHQGLSSPVTKSFNRGEC",–,–,–,–,–,–,–,1.1 nM and 1 nM
"Construct 2 (antibody, human IgG1, kappa) heavy: QVTLRESGPALVKPTQTLTLTCTVSGFSLSAYSVNWIRQPPGKALEWLAMIWGDGKIVYNSALKSRLTISKDTSKNQVVLTMTNMDPVDTATYYCAGDGYYPYAMDNWGQGSLVTVSSASTKGPSVFPLAPSSKSTSGGTAALGCLVKDYFPEPVTVSWNSGALTSGVHTFPAVLQSSGLYSLSSVVTVPSSSLGTQTYICNVNHKPSNTKVDKKVEPKSCDKTHTCPPCPAPELAGAPSVFLFPPKPKDTLYITREPEVTCVVVDVSHEDPEVKFNWYVDGVEVHNAKTKPREEQYNSTYRVVSVLTVLHQDWLNGKEYKCKVSNKALPAPIEKTISKAKGQPREPQVYTLPPSRDELTKNQVSLTCLVKGFYPSDIAVEWESNGQPENNYKTTPPVLDSDGSFFLYSKLTVDKSRWQQGNVFSCSVMHEALHNHYTQKSLSLSPG light: DIVMTQSPDSLSVSLGERATINCRASKSVDSYGNSFMHWYQQKPGQPPKLLIYLASNLESGVPDRFSGSGSGTDFTLTISSLQAEDVAVYYCQQNNEDPRTFGGGTKVEIKRTVAAPSVFIFPPSDEQLKSGTASVVCLLNNFYPREAKVQWKVDNALQSGNSQESVTEQDSKDSTYSLSSTLTLSKADYEKHKVYACEVTHQGLSSPVTKSFNRGEC",–,–,–,–,–,–,–,0.9 nM
"Construct 129 (antibody, human IgG4, kappa, also called Lebrikizumab-HC; Lebrikizumab-LC) heavy: QVTLRESGPALVKPTQTLTLTCTVSGFSLSAYSVNWIRQPPGKALEWLAMIWGDGKIVYNSALKSRLTISKDTSKNQVVLTMTNMDPVDTATYYCAGDGYYPYAMDNWGQGSLVTVSSASTKGPSVFPLAPCSRSTSESTAALGCLVKDYFPEPVTVSWNSGALTSGVHTFPAVLQSSGLYSLSSVVTVPSSSLGTKTYTCNVDHKPSNTKVDKRVESKYGPPCPSCPAPEFLGGPSVFLFPPKPKDTLMISRTPEVTCVVVDVSQEDPEVQFNWYVDGVEVHNAKTKPREEQFNSTYRVVSVLTVLHQDWLNGKEYKCKVSNKGLPSSIEKTISKAKGQPREPQVYTLPPSQEEMTKNQVSLTCLVKGFYPSDIAVEWESNGQPENNYKTTPPVLDSDGSFFLYSRLTVDKSRWQEGNVFSCSVLHEALHSYTQKSLSLSLGK light: DIVMTQSPDSLSVSLGERATINCRASKSVDSYGNSFMHWYQQKPGQPPKLLIYLASNLESGVPDRFSGSGSGTDFTLTISSLQAEDVAVYYCQQNNEDPRTFGGGTKVEIKRTVAAPSVFIFPPSDEQLKSGTASVVCLLNNFYPREAKVQWKVDNALQSGNSQESVTEQDSKDSTYSLSSTLTLSKADYEKHKVYACEVTHQGLSSPVTKSFNRGEC",0.036 nM,0.33 nM,0.92 nM,0.21 nM,0.239 nM,0.882 nM,0.71 nM,–
"Construct 130 (antibody, human IgG1, kappa, L234A L235A, also called Lebrikizumab-HC; Lebrikizumab-LC) heavy: QVTLRESGPALVKPTQTLTLTCTVSGFSLSAYSVNWIRQPPGKALEWLAMIWGDGKIVYNSALKSRLTISKDTSKNQVVLTMTNMDPVDTATYYCAGDGYYPYAMDNWGQGSLVTVSSASTKGPSVFPLAPSSKSTSGGTAALGCLVKDYFPEPVTVSWNSGALTSGVHTFPAVLQSSGLYSLSSVVTVPSSSLGTQTYICNVNHKPSNTKVDKKVEPKSCDKTHTCPPCPAPEAAGGPSVFLFPPKPKDTLYITREPEVTCVVVDVSHEDPEVKFNWYVDGVEVHNAKTKPREEQYNSTYRVVSVLTVLHQDWLNGKEYKCKVSNKALPAPIEKTISKAKGQPREPQVYTLPPSRDELTKNQVSLTCLVKGFYPSDIAVEWESNGQPENNYKTTPPVLDSDGSFFLYSKLTVDKSRWQQGNVFSCSVMHEALHNHYTQKSLSLSPG light: DIVMTQSPDSLSVSLGERATINCRASKSVDSYGNSFMHWYQQKPGQPPKLLIYLASNLESGVPDRFSGSGSGTDFTLTISSLQAEDVAVYYCQQNNEDPRTFGGGTKVEIKRTVAAPSVFIFPPSDEQLKSGTASVVCLLNNFYPREAKVQWKVDNALQSGNSQESVTEQDSKDSTYSLSSTLTLSKADYEKHKVYACEVTHQGLSSPVTKSFNRGEC",0.027 nM,0.28 nM,1 nM,0.15 nM,0.112 nM,0.227 nM,1.05 nM,–
"Construct 131 (antibody, human IgG1, kappa, L234A L235A, also called Lebrikizumab-HC; Lebrikizumab-LC) heavy: not shown light: DIVMTQSPDSLSVSLGERATINCRASKSVDSYGNSFMHWYQQKPGQPPKLLIYLASNLESGVPDRFSGSGSGTDFTLTISSLQAEDVAVYYCQQNNEDPRTFGGGTKVEIKRTVAAPSVFIFPPSDEQLKSGTASVVCLLNNFYPREAKVQWKVDNALQSGNSQESVTEQDSKDSTYSLSSTLTLSKADYEKHKVYACEVTHQGLSSPVTKSFNRGEC",0.019 nM,0.22 nM,0.99 nM,0.13 nM,0.0756 nM,0.123 nM,0.79 nM,–
